Molecular target: T1, LCAT (Homo sapiens, UniProt P04180)
T1 sequence (P04180 25-440): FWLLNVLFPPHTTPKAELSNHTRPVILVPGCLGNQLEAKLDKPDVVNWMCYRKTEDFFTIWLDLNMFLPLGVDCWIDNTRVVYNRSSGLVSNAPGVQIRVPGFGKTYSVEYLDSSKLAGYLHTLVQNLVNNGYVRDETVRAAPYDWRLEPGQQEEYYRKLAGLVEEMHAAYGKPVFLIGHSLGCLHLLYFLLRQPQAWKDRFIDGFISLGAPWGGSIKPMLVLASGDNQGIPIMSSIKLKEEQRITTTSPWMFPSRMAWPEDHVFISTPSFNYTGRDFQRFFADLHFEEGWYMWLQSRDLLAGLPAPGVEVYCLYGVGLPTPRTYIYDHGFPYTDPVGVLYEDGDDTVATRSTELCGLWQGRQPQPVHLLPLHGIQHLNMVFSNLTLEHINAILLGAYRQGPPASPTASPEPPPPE
Test: Assay of LCAT activity in plasma with HDL-mimetic substrate
Type: biochemical
Conditions: rhLCAT in buffer; 2 μL with 100 μL HMS (100 μM DHE), 2 hours

Q: With “rhLCAT: Recombinant human LCAT purified from the medium of a stably transfected HEK293F cell clone” as the substance, how does the “Slope of activity versus rhLCAT concentration” value read?
A: 5 nmol/µg/h
